Test results reported in patent US20240010683A1, “Peptide Inhibitors of Human Mitochondrial Fission Protein 1 and Methods of Use” (The Medical College of Wisconsin, Inc., priority 2020, published 2024).
“And” between values parts separate entries of the source, which are not always exact repeats. Equal entries are not always repeated.

Biological target: T1, recombinant human mitochondrial fission protein 1 (Fis1) (human), Q9Y3D6
T1 chain: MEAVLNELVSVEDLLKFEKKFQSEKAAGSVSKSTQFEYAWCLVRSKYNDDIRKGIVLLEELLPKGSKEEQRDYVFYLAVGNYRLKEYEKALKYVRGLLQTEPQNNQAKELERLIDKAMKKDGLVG

SHKHDPLPYPHFLL (modifications not checked) [pep213]
Kd: 7 µM and 3.3 µM
